Measurements taken from patent US20210261685A1 (Alector, published 2021).
Residue numbers refer to the chain shown, from its start.

T1: Recombinant human MerTK human Fc Chimera protein (R&D systems, Cat #391-MR-100) (human, UniProt Q12866 26-499, limits assumed)
T1 construct: Bought; also called recombinant human MerTK protein; MerTK-Fc
T1 sequence: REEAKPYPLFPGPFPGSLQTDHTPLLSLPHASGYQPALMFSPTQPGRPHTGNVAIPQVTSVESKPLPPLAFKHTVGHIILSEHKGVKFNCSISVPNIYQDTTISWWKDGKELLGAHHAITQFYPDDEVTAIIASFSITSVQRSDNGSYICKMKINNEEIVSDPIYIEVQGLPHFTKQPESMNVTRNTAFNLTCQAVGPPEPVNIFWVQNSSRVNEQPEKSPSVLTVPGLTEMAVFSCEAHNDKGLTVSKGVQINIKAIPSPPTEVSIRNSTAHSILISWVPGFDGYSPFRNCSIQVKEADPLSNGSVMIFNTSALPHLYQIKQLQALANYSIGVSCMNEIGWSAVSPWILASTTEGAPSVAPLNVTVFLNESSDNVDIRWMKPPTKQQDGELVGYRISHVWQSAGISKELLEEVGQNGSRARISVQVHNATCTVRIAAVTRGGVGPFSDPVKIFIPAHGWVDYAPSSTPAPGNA

T2: murine MerTK overexpressed on CHO cells (CHO-muMerTK OE cells) (mouse, UniProt Q60805 19-994)
T2 construct: whole, on cells
T2 sequence (looked up): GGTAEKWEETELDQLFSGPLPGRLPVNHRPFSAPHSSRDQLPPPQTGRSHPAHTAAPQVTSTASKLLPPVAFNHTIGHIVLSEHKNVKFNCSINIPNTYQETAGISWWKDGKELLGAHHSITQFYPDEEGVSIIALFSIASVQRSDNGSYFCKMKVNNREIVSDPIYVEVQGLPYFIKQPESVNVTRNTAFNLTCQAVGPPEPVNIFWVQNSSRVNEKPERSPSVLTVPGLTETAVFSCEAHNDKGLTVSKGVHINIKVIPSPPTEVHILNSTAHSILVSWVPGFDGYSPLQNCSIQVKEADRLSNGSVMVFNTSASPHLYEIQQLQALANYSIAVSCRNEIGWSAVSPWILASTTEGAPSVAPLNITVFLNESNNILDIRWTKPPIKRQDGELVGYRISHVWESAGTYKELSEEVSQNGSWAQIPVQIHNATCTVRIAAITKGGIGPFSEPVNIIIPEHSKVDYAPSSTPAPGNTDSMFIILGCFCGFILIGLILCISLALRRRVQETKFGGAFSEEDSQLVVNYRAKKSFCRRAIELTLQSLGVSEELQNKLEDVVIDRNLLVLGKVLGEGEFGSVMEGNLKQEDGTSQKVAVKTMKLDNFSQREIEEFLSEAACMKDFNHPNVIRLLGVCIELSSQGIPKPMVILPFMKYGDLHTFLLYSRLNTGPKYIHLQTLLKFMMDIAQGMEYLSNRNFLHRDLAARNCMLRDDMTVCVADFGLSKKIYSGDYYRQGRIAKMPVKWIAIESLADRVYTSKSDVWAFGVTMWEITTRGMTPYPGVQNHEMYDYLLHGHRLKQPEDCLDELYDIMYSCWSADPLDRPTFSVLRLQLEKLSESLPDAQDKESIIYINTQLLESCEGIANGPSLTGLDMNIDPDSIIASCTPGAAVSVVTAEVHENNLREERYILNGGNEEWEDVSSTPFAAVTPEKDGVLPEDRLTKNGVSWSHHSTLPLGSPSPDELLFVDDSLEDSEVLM

B1: MTK-18 (antibody, human IgG1, V domains shown)
VH: QIQLVQSGPELKKPGETVKISCKASGYTFTHYGMTWVKQAPGKGLKWMGWINTYTGEPTYADDFKGRFAFSLETSASTAYLQINNLKNEDTATYFCARGGGQLGLRPLDYWGQGTTLTVSS
VL: DIQMTQTTSSLSASLGDRVTFSCRASQAISNYLNWYQQKPDGTVKLLIYYTSRLHSGVPSRFSGSGSGTDYSLTISNLEQEDIATYFCQQGNTLPWTFGGGTKLEIK
B2: MTK-03 (antibody, human IgG1, V domains shown)
VH: DVQLQESGPGLVKPSQSLSLTCSVTGYSITSGYYWNWIRQFPGNTLEWMGYMSFDGDNKFNPSLKNRISITRDTSKNQFFLRLNSVTTEDTATYYCARGGYNYGSTEANWGQGTLVTVSA
VL: QIVLTQSPAIMSAFPGEKVTITCSASSSVNYMHWFQQKPGTSPKLWIYSTSNLASGVPARFSGSGSGTSYSLTISRMEAEDAATYYCQQRSSYPFTFGSGTKLEIK
B3: MTK-07 (antibody, human IgG1, V domains shown)
VH: B2 VH with A120T
VL: B2 VL with N30T, Y48F
B4: MTK-17 (antibody, human IgG1, V domains shown)
VH: QIQLVQSGPELKKPGETVKISCKASGYTFTNFGMNWVKQAPGKGLKWMGWINTYTGEPTYADDFKGRFAFSLETSASTAYLQINNLKNEDTATYFCSRGAVLRAGAMDCWGQGTSVTVSS
VL: DIQMTQSSSYLSVSLGGRVTITCKASDHINNWLAWYQQKPGNAPRLLISGATSLETGVPSRFSGSGSGKDYTLSITSLQTEDVATYYCQQYWSTPRTFGGGTKLEIK
B5: MTK-16 (antibody, human IgG1, V domains shown)
VH: LIQLVQSGPELKKPGETVKISCKASGYTFTNHGMNWVKQDPGKGLKWMGWINTYTGEPTYADDFKGRFVFSMETSASAAFLQINNLKNEDTATYFCARKGVTAARYFDYWGQGTTLTVSS
VL: DIVMTQSPKFMSTSVGDRVSITCKASQNVRTAVAWYKKKPGQSPKALINLASNRHTGVPDRFTGSGSGTDFTLTISNVQSEDLADYFCLQHWNYPLTFGGGTKLEIK
B6: MTK-21 (antibody, human IgG1, V domains shown)
VH: B1 VH with H31N, Y32F, K38R, K43M, G44D, T59K, F70L, N84T, L86F, Q102R
VL: B1 VL with F21I, A28D, S30N, R53S, S76T, K103R
B7: MTK-24 (antibody, human IgG1, V domains shown)
VH: QVQLQQPGAELVKPGASVKLSCKASGYTFTSYWMHWVKQRPGQGLEWIGMIHPNINTNYNEKFKSKATLTVDISSSTAYMQLSSLTSEDSAVYYCAKRSPYSNYDWYFDVWGTGTTVTVSS
VL: DIQMTQSPASLSVSVGETVTITCRASENIYSNLAWYQQKQGKSPQLLVYAATNLADGVPSRFSGSGSGTQYSLKINSLQSEDFGSYYCQHFWGTPLTFGAGTKLELK
B8: MTK-33 (antibody, human IgG1, V domains shown)
VH: QVQLQQPGPELVRPGTSVKLSCKASGYTFTSYWMHWIKQRPGQGLEWIGVIDPSDNYINYNQKFKGKATLTVDTSSSTAYLQLSSLTSEDSAVYYCAREAGTRGYFDYWGQGTTLTVSS
VL: SIVMTQTPKFLLVSAGDRVIITCKASQSVSNTVAWYQQKPGQSPKLLIYYASNRYTGVPDRFTGSGYGTDFTFTISTVQAEDLAVYFCQQDYRSPFTFGSGTQLEMK
B9: MTK-29 (antibody, human IgG1, V domains shown)
VH: QIQLVQSGPELKKPGETVKISCKSSGFTFTTYGMSWVKQAPGKGLKWMGWINTYSGVPTYTDDFKGRFAFSLETSASTASLQINNLKNEDTATYFCARYTNYGYFDYWGQGTTLTVSS
VL: QIVLSQSPAILSASPGEKVTMTCRATSSVGYMHWYQQKPGSSPKPWIYATSNLASGVPARFSGSGSGTSYSLTISRVEAEHAATYYCQQWGSNPFTFGSGTKLEIK
B10: MTK-30 (antibody, human IgG1, V domains shown)
VH: QVQLQQPGTELVRPGASVKLSCKASGYTFTSYWMHWVKQRPGQGLEWIGNLNPNNGGTYYNEKFKSKATLTVDKSSSTAYMQLSSLTSEDSAVYYCARQILLYFDYWGQGTTLTVSS
VL: DVLMTQTPLSLPVSLGDQASISCRSSQSIVHSNGDTYLEWYLQKPGQSPKLLIYKVSNRFSGVPDRFSGSGSGTDFTLKISRVEAEDLGVYYCFQGSHVPWTFGGGTKLEIK
B11: MTK-31 (antibody, human IgG1, V domains shown)
VH: QIQLVQSGPELKKSGETVKISCKASGYTFTSYGMSWVKQAPGKGLKWMGWINTYSGVPTYADDFKGRFAFSLETSASTAYLQINNLKNEDTATYFCASLSYDGSLYHAMDYWGQGTSVTVSS
VL: B10 VL with L3S, C23S, S28T, D35N

These binders were tested against T1, Recombinant human MerTK human Fc … (assay: competition ELISA: His-tagged ProS (20 ug/ml) binding to captured human MerTK-Fc, anti-His-HRP detection; blocked ligand ProS).
Protocol: (§1) Rabbit anti-human IgG polyclonal antibody (Jackson ImmunoResearch, Cat #309-005-008) was captured to a high-protein binding plate at 2 μg/ml 4° C. overnight. After washing with 0.05% Tween20 in PBS three times, 5% BSA in PBS was added for 1 hour. Recombinant human MerTK human Fc Chimera protein (R&D systems, Cat #391-MR-100) was added at 2 μg/ml for 1 hour and the plates were then washed. Anti-MerTK antibodies were titrated to final concentration range of between 66.6 nM to 4 pM and then 40 μl of serially diluted antibody and 40 μl of His tag-conjugated recombinant Gas6 protein (R&D systems, Cat #885-GSB-050) at 3 μg/ml or His tag-conjugated recombinant ProS protein (R&D systems, Cat #9489-PS-100) at 20 μg/ml. After a further incubation for 1 hour, plates were washed and incubated for 1 hour with HRP-conjugated anti-6×His tag antibody (Abcam, Cat #ab1187). Plates were then washed and an HRP substrate (TMB) was used to develop the plates. After sufficient color change was observed, the reaction was stopped by adding 50 μl 2N H₂SO₄ and the OD was measured using a spectrophotometer (BioTek).

IC50 (read off the curve) [nM] | Binder
~5 | B1
~4 | B2
~3 | B3
5 to 8 | B4

Each binder was assayed against T1, Recombinant human MerTK human Fc … (assay: competition ELISA: His-tagged Gas6 (3 ug/ml) binding to captured human MerTK-Fc, anti-His-HRP detection; blocked ligand Gas6).
Protocol: as §1

IC50 (read off the curve) [nM] | Binder
~7 | B5
~6 | B6
~8 | B3

These binders were tested against T2, murine MerTK overexpressed on CHO cells … (assay: flow cytometry on CHO-muMerTK OE cells, Prism fit).
Protocol: To determine whether recombinant anti-human MerTK antibodies of the present disclosure bind to human MerTK endogenously expressed on SK-MEL-5 cells and to CHO cells overexpressing mouse MerTK (CHO-muMerTK OE cells), the following experiments were performed. SK-MEL-5 cells and CHO-muMerTK OE cells were plated at 40,000 cells/well. Anti-MerTK antibodies were titrated to a final concentration range of between 66.6 nM to 4 pM and then added to the cells. After 30 min on ice, cells were washed and then stained with APC-conjugated mouse anti-human Kappa antibody (Southern Biotech Cat #9230-11, Birmingham, Ala.) and a viability die (Life Technologies) in the presence of Fc block solution on ice for 30 minutes, and then washed twice with cold FACS buffer (2% FBS in PBS). Cells were fixed with 4% paraformaldehyde in PBS. Stained cells were acquired on a BD FACS Canto II cytometer and the mean fluorescence intensity (MFI) was calculated with FlowJo software and K value was calculated with Prism software. […] A lower Kd value reflects higher binding of antibody to cells.

Kd [nM] | Binder
0.22 | B7
0.53 | B8
5.22 | B9
0.24 | B10
2.91 | B11
